What all share (assay): Crosslinking/co-immunoprecipitation/mass spectrometry (TMT quantitative proteomics) to identify irisin receptors
Holding throughout (type): binding

Experiment [1] concerns the target T1, MLO-Y4 cell surface proteins (Mus musculus, UniProt C0HKE1).
T1 construct: endogenous in cells; host or cells: MLO-Y4
As to conditions: co-precipitated protein Hist1h2ab (H2A1_MOUSE). A digest of the protocol: (§1)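 Mouse MLO-Y4 cells were switched to serum-free FreeStyle medium for 4 h, chilled, then exposed to 10 nM His-tagged irisin (or adipsin as control) for 20 min. Cells were crosslinked with 1.5 mM DTSSP (30 min, ice), and bound proteins were pulled down on Ni-NTA and eluted with 250 mM imidazole. Eluates were separated by SDS-PAGE, trypsin-digested in gel, TMT 6-plex labelled and quantified by MS3-based LC-MS/MS on an Orbitrap Fusion Lumos.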

The target of experiment [2] is T2, MLO-Y4 cell surface proteins (Mus musculus, UniProt P16675).
T2 construct: endogenous in cells; host or cells: MLO-Y4
T2 sequence (P16675 24-474): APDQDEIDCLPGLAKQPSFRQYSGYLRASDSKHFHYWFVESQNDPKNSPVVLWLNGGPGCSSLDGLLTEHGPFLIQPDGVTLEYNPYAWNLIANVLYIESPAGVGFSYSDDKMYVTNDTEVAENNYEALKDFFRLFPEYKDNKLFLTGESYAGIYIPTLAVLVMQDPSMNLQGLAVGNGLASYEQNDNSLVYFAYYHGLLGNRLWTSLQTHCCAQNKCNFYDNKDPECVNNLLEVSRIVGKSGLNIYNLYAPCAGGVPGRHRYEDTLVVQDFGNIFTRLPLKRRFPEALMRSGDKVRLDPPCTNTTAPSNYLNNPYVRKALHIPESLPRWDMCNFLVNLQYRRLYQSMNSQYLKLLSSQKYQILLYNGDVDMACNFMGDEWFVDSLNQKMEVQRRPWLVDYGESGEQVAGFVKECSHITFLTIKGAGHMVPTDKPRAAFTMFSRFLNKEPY
As to conditions: co-precipitated protein Ctsa (PPGB_MOUSE). A digest of the protocol: as §1

In experiment [3] the target is T3, MLO-Y4 cell surface proteins (Mus musculus, UniProt Q66L42).
T3 construct: endogenous in cells; host or cells: MLO-Y4
Conditions: co-precipitated protein Map3k10 (M3K10_MOUSE). A digest of the protocol: as §1

For experiment [4], the target named is T4, MLO-Y4 cell surface proteins (Mus musculus, UniProt Q921N7).
T4 construct: endogenous in cells; host or cells: MLO-Y4
T4 sequence (Q921N7 78-253): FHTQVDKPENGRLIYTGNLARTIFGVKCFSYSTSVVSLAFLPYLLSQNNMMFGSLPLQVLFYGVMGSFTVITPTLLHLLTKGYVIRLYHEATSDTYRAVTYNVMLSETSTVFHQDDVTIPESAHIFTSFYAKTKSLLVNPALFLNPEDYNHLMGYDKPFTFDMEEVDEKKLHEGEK
Conditions: co-precipitated protein Tmem70 (TMM70_MOUSE). A digest of the protocol:
as §1

Experiment [5] deals with T5, MLO-Y4 cell surface proteins (Mus musculus, UniProt Q9CYR0).
T5 construct: endogenous in cells; host or cells: MLO-Y4
T5 sequence (Q9CYR0 17-152): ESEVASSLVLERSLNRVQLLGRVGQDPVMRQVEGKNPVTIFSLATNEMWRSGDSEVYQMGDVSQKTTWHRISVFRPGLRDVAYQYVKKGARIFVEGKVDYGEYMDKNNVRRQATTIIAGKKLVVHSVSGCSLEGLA
As to conditions: co-precipitated protein Ssbp1 (SSBP_MOUSE). The method, boiled down: as §1

In experiment [6] the target is T6, MLO-Y4 cell surface proteins (Mus musculus, UniProt Q9Z138).
T6 construct: endogenous in cells; host or cells: MLO-Y4
Conditions: co-precipitated protein Ror2 (ROR2_MOUSE). A digest of the protocol:
as §1

Experimental findings from patent publication US20210063414A1, “METHODS FOR PREVENTING AND/OR TREATING BONE LOSS CONDITIONS BY MODULATING IRISIN” (Dana-Farber Cancer Institute, Inc., priority 2018, published 2021) are described below.

T3 sequence (Q66L42 whole entry): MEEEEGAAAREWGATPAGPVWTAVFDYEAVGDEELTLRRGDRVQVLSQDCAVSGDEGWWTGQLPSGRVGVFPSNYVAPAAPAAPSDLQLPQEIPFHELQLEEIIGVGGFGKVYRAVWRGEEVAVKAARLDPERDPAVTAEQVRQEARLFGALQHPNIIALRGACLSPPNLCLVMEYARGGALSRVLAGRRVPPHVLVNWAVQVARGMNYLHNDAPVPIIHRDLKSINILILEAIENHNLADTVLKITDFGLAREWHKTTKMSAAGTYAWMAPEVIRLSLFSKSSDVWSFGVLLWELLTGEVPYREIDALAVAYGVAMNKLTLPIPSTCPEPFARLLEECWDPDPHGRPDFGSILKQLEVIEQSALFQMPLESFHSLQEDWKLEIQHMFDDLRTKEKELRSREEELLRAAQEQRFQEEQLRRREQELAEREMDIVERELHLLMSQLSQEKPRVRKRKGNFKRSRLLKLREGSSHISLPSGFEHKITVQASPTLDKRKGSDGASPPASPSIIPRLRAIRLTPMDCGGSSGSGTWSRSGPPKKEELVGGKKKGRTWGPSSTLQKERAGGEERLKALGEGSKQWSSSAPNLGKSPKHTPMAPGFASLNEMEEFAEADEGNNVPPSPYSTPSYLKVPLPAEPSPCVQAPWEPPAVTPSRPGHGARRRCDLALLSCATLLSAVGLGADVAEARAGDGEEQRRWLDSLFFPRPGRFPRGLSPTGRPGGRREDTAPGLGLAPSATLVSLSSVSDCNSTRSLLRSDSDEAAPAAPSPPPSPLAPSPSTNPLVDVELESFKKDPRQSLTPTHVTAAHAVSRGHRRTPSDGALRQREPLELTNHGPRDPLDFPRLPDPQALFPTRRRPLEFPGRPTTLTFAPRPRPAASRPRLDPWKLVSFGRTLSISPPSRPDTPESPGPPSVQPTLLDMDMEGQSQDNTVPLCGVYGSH
T6 sequence (Q9Z138 34-944): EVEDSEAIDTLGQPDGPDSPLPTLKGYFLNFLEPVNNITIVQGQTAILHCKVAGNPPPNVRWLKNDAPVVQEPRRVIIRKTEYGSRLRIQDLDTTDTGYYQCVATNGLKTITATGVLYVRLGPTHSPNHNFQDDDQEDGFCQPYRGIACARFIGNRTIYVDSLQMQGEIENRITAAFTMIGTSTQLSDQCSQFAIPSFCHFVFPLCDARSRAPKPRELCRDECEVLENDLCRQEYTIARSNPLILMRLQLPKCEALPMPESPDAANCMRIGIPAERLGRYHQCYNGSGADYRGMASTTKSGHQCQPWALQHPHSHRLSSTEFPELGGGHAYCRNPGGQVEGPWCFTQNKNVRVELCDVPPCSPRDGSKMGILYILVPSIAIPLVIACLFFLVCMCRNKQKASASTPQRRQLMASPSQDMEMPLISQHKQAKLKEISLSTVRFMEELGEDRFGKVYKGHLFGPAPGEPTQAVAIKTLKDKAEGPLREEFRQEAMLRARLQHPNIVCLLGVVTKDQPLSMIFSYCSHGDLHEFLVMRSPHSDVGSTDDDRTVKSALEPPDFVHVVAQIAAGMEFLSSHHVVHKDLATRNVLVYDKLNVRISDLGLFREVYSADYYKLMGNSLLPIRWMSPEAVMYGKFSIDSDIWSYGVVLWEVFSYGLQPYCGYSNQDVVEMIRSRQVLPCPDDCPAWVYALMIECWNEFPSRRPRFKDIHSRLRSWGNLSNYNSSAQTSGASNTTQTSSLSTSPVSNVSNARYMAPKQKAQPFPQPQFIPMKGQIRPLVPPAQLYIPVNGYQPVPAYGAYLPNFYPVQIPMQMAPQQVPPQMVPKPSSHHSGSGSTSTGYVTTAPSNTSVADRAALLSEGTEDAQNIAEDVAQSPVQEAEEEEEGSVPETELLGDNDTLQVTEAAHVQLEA

In the case of adipsin, the TMT signal-to-noise ratio in experiment [1] is given as 273.934; in experiment [2], 357.95; in experiment [3], 109.366; in experiment [4], 88.4078; in experiment [5], 432.759; in experiment [6], 67.6684.
